B1: mCherry::HSET (full-length, wild type) (natural protein, human, UniProt Q9BW19 1-673, looked up)
chain: MDPQRSPLLEVKGNIELKRPLIKAPSQLPLSGSRLKRRPDQMEDGLEPEKKRTRGLGATTKITTSHPRVPSLTTVPQTQGQTTAQKVSKKTGPRCSTAIATGLKNQKPVPAVPVQKSGTSGVPPMAGGKKPSKRPAWDLKGQLCDLNAELKRCRERTQTLDQENQQLQDQLRDAQQQVKALGTERTTLEGHLAKVQAQAEQGQQELKNLRACVLELEERLSTQEGLVQELQKKQVELQEERRGLMSQLEEKERRLQTSEAALSSSQAEVASLRQETVAQAALLTEREERLHGLEMERRRLHNQLQELKGNIRVFCRVRPVLPGEPTPPPGLLLFPSGPGGPSDPPTRLSLSRSDERRGTLSGAPAPPTRHDFSFDRVFPPGSGQDEVFEEIAMLVQSALDGYPVCIFAYGQTGSGKTFTMEGGPGGDPQLEGLIPRALRHLFSVAQELSGQGWTYSFVASYVEIYNETVRDLLATGTRKGQGGECEIRRAGPGSEELTVTNARYVPVSCEKEVDALLHLARQNRAVARTAQNERSSRSHSVFQLQISGEHSSRGLQCGAPLSLVDLAGSERLDPGLALGPGERERLRETQAINSSLSTLGLVIMALSNKESHVPYRNSKLTYLLQNSLGGSAKMLMFVNISPLEENVSESLNSLRFASKVNQCVIGTAQANRK
notes: HSET/KifC1, kinesin-14 motor protein, human; also called KifC1; HSET/KifC1; source: SF9 insect cells (baculovirus, FlexiBAC), purified (Ni-NTA)

Legend:
[1] = target: GFP::CDK5RAP2 isoform B (full-length, wild type) (human) (UniProt Q96SN8); assay: partitioning into in vitro scaffolds, confocal fluorescence microscopy; 4-component asters: 167nm GFP::CDK5RAP2, 33nM mBFP::γ-TuRCs, 33nM mCherry::HSET, 13μM HiLyte-647-labeled α/β tubulin; 50mM KCl, 25mM HEPES, pH7.4, IgM+; no ATP·MgCl2; compared with 3-component asters
[2] = target: T1, GFP::CDK5RAP2 isoform B (full-length, wild type) (human, UniProt Q96SN8-4 1-1814); assay: partitioning into in vitro scaffolds, confocal fluorescence microscopy; GFP::CDK5RAP2 assemblies (120nM) induced with anti-CM2 IgM; mCherry, full-length or ΔIDR mCherry::HSET at 50nM; 50mM KCl, 25mM HEPES; partition coefficient; details: both partners purified
T1 construct: CDK5 regulatory subunit-associated protein 2 (CDK5RAP2/CEP215), human, isoform B, Protein ID Q96SN8-4, lacking a.a; 1576-1654 of the longest isoform; Stood in the assays as micron-scale assemblies nucleated by an anti-CM2 IgM; also called CEP215; GFP::CDK5RAP2 scaffolds; source: SF9 insect cells (baculovirus, FlexiBAC), purified (Ni-NTA, MBP trap beads, eluted with PreScission protease)
T1 sequence (Q96SN8 other isoform, or with tags, fused parts or gaps): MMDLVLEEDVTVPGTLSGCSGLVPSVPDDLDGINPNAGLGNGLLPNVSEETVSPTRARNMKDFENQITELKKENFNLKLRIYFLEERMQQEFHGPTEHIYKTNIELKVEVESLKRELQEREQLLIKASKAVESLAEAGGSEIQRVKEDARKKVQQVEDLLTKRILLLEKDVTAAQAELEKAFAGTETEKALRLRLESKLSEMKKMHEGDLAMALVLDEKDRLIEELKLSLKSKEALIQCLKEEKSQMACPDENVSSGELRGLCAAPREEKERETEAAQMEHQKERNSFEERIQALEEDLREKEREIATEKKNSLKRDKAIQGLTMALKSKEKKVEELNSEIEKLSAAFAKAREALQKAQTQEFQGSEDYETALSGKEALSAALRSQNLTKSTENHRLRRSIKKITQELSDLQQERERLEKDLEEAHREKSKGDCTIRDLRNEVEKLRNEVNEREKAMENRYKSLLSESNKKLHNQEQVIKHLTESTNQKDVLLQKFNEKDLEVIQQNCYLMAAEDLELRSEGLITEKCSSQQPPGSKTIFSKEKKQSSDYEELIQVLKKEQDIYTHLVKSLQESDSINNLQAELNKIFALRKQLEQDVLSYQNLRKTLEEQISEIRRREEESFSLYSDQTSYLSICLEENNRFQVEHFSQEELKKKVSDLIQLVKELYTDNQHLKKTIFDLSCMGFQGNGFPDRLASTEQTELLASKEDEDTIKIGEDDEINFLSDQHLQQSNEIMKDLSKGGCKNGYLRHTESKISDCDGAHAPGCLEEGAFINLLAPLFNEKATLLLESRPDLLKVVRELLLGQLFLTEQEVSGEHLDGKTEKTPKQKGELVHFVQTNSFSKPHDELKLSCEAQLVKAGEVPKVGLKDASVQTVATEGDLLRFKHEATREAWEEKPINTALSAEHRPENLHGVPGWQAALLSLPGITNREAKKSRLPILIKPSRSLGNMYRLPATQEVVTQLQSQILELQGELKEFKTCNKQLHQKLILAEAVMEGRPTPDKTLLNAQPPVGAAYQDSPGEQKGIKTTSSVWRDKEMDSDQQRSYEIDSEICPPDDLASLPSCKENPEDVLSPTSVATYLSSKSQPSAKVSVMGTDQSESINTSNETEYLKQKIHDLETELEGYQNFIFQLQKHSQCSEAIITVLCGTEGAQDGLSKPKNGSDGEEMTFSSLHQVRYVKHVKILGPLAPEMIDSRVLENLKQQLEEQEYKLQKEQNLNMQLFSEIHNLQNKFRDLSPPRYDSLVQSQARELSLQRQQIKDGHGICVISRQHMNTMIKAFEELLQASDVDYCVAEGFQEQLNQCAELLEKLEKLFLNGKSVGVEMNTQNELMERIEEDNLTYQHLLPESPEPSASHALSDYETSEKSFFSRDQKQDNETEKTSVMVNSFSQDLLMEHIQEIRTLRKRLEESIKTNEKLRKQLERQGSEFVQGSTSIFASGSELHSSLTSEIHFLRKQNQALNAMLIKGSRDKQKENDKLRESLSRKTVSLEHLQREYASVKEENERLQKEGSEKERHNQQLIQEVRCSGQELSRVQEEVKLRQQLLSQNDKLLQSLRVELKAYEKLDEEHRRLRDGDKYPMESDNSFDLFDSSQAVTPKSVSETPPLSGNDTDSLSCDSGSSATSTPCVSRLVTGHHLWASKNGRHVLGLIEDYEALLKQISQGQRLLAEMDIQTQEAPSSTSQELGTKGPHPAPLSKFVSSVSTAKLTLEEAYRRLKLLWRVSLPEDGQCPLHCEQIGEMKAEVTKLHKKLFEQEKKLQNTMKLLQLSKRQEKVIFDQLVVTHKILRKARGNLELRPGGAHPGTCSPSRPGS

Sequence of GFP::CDK5RAP2 isoform B (full-length, wild type) (human) (Q96SN8 other isoform, or with tags, fused parts or gaps): as above

| Molecule | fold more recruited into scaffolds in the presence of mCherry::HSET (4-component against 3-component) [1] [fold] | binding result [2] |
| --- | --- | --- |
| human gamma tubulin ring complex tagged with blue fluorescent protein (mBFP::γ-TuRC) (from UniProt P23258 1-451) | 1.4 |  |
| B1 |  | binds |

Reference: publication doi:10.1101/2025.02.20.639226, “In vitro reconstitution of minimal human centrosomes” (bioRxiv, 2025)
